The record followed here is publication doi:10.1101/2020.10.05.326918 (bioRxiv, 2020).

Common to all, as to experiment: cryo-EM structure
One assay addresses T1, MED22 (Mus musculus (endogenous in CH12 cells), UniProt Q62276 1-200).
T1 sequence (looked up): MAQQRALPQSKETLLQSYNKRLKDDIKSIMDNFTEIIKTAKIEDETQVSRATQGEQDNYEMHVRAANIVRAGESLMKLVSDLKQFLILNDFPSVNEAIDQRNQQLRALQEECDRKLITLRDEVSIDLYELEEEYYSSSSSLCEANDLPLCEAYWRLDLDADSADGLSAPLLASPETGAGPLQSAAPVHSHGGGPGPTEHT

Another assay deals with T2, MED28 (Mus musculus (endogenous in CH12 cells), UniProt Q920D3 1-178).
T2 sequence (looked up): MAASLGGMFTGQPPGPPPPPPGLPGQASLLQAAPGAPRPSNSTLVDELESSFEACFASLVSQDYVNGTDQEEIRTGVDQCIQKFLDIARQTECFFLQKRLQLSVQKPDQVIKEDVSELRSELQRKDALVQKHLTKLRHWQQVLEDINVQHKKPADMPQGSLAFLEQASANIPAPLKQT

In the next assay the target is T3, MED30 (Mus musculus (endogenous in CH12 cells), UniProt Q9CQI9 1-178).
T3 sequence (looked up): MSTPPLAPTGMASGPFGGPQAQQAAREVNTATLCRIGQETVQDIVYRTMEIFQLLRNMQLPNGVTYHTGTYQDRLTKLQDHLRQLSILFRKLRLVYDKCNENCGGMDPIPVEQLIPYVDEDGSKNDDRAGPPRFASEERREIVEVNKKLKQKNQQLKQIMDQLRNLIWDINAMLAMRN

The next assay addresses MED1 (Mus musculus (endogenous in CH12 cells), UniProt Q925J9 1-1575).
The target in a further assay is T4, MED4 (Mus musculus (endogenous in CH12 cells), UniProt Q9CQA5 1-270).
T4 sequence (looked up): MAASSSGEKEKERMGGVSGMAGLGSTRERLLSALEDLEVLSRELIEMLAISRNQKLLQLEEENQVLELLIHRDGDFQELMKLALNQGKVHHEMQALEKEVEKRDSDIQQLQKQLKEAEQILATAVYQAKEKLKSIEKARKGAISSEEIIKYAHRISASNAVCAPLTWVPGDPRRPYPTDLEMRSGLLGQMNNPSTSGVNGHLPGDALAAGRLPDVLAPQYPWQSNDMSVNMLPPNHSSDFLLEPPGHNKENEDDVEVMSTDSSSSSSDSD

The target of the next assay is T5, MED7 (Mus musculus (endogenous in CH12 cells), UniProt Q9CZB6 1-233).
T5 sequence (looked up): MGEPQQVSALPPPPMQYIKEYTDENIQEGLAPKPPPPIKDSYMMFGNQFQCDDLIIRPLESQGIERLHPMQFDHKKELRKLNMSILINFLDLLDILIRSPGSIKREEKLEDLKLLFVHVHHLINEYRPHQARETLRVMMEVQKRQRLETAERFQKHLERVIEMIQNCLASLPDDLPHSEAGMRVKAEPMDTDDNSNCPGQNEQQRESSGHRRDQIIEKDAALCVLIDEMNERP

The target in the next assay is T6, MED20 (Mus musculus (endogenous in CH12 cells), UniProt Q9R0X0 1-212).
T6 sequence (looked up): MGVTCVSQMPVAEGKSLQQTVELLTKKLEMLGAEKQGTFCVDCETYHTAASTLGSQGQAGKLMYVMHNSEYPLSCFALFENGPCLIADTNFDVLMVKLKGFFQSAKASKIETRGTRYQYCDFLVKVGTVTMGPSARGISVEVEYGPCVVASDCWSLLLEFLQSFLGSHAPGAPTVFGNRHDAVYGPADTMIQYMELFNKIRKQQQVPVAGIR

A further assay concerns the target T7, MED27 (Mus musculus (endogenous in CH12 cells), UniProt Q9DB40 1-311).
T7 sequence (looked up): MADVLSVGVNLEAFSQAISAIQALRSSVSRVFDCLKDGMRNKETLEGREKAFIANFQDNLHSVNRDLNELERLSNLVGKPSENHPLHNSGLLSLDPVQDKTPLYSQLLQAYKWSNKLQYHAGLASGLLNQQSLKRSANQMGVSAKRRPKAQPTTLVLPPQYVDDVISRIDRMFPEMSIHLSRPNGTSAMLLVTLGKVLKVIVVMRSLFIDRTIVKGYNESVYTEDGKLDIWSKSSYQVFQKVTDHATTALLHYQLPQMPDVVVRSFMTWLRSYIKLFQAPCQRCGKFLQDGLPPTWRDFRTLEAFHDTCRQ

For a further assay, the target named is T8, MED17 (Mus musculus (endogenous in CH12 cells), UniProt Q8VCD5 1-649).
T8 sequence (looked up): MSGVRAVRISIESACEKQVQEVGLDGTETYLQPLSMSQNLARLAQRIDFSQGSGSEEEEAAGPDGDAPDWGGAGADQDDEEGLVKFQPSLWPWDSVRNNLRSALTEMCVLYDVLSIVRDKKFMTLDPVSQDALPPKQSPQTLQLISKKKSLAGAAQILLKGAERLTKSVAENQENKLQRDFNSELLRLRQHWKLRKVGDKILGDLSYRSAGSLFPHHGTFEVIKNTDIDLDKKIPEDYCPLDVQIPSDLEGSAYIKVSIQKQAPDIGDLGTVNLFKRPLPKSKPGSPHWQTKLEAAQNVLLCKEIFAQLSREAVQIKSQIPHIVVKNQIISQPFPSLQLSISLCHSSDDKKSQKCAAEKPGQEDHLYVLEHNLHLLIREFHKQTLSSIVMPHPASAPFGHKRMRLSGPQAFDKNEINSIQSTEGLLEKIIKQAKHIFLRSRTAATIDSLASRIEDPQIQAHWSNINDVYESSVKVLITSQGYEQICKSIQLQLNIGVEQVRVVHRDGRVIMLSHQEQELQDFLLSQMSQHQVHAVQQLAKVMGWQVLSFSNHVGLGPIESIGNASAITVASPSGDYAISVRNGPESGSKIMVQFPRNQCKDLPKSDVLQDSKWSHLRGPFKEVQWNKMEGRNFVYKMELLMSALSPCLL

MED1, sequence (Q925J9 whole entry): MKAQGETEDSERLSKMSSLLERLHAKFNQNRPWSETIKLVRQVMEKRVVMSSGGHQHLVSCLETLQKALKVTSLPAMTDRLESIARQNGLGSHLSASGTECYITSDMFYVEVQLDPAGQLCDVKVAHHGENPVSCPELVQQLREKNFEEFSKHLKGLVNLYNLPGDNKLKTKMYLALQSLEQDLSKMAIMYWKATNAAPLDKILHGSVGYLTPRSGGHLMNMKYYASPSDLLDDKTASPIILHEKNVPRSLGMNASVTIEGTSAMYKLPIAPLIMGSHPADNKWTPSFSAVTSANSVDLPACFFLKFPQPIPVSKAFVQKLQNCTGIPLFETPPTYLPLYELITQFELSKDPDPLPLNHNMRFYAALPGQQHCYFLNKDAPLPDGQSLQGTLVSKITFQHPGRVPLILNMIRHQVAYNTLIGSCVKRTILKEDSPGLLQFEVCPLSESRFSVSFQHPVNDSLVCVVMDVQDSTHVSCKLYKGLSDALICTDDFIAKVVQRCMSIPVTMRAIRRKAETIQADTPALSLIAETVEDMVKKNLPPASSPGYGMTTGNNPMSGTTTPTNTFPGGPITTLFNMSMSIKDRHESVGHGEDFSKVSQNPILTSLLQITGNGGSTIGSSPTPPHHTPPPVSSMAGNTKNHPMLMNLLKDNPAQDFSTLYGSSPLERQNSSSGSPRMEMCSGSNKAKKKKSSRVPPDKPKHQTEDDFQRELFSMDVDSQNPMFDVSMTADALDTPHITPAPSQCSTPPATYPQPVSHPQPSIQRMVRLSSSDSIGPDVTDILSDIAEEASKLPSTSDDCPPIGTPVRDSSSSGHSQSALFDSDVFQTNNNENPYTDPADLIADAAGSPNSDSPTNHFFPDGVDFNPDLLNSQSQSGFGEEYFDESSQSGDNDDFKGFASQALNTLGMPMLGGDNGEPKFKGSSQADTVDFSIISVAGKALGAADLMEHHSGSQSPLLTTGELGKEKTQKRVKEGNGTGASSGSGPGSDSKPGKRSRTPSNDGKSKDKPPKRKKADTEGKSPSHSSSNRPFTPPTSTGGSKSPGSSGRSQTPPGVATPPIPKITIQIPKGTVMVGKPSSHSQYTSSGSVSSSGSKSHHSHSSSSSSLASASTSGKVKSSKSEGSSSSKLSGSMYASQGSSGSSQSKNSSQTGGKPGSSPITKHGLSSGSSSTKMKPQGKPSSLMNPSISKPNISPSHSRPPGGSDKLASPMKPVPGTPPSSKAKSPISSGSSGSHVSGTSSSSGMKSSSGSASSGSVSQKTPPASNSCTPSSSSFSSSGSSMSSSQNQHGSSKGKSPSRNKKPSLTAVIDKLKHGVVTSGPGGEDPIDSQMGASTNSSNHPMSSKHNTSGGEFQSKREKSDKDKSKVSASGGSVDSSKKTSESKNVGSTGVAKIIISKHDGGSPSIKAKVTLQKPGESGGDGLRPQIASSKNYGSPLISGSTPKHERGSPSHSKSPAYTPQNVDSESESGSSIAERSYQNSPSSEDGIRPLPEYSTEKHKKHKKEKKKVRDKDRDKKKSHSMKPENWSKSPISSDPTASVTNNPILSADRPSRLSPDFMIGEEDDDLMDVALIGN

B1: MED11 (natural protein, Mus musculus (endogenous in CH12 cells), UniProt Q9D8C6 1-117, looked up)
chain: MATYSLANERLRALEDIEREIGAILQNAGTAILELSKEKTNERLLDRQAAAFTTSVQHVEAELSAQIRYLTQVATGQPHEGSSYSSRKDCQMALKRVDYARLKISDVARTCEQMLEN
Take B1: the binding result with MED22, with MED28 and with MED30 was “binds” throughout.

B2: MED9 (natural protein, Mus musculus (endogenous in CH12 cells), UniProt Q8VCS6 1-142, looked up)
chain: MASSGVAGGRQAEDTLQPPPELLPESKPPPPPQPLPVAALPPPAAPRPQSPAGAKEENYSFLPLVHNVIKCMDKDSPDLHQDLNALKTKFQELRKLIGTMPGIHVSPEQQQQQLHSLREQVRTKNELLQKYKSLCMFEIPKD
As to B2, the binding result in the assay with MED1 and with MED4 was “binds” throughout.

B3: MED21 (natural protein, Mus musculus (endogenous in CH12 cells), UniProt Q9CQ39 1-144, looked up)
chain: MADRLTQLQDAVNSLADQFCNAIGVLQQCGPPASFSNIQTAINKDQPANPTEEYAQLFAALIARTAKDIDVLIDSLPSEESTAALQAASLYKLEEENHEAATCLEDVVYRGDMLLEKIQSALADIAQSQLKTRSVTHSHSLPDS
Take B3: in the assay with MED7, the binding result was “binds”.

B4: MED18 (natural protein, Mus musculus (endogenous in CH12 cells), UniProt Q9CZ82 1-208, looked up)
chain: MEAPPVTMMPVTGGTINMMEYLLQGSVLDHSLESLIHRLRGLCDNMEPETFLDHEMVFLLKGQQASPFVLRARRSMDRAGAPWHLRYLGQPEMGDKNRHALVRNCVDIATSENLTDFLMEMGFRMDHEFVAKGHLFRKGIMKVVVYKIFRILVPGNTDSTEALSLSYLVELSVVAPAGQDMVSDDMRNFAEQLKPLVHLEKIDPKRLM
For B4, the binding result with MED20, with MED27 and in the assay with MED17 was “binds” in each case.
